# Legend:
# SHP2-C SH2 = experiment: SH2 binding enrichment of the phosphorylated peptide, bacterial display (enrichment ratio); higher = better substrate or ligand; peptides without Tyr show the background
# c-Src SH2 = experiment: as above
# Grb2 SH2 = Grb2 SH2 (UniProt P62993); experiment: as above
# EPHB1 = EPHB1 (UniProt P54762); experiment: phosphorylation enrichment, bacterial display (enrichment ratio); higher = better substrate or ligand; peptides without Tyr show the background
# c-Abl (mouse) = experiment: as above
# Fer (mouse) = experiment: as above
# FGFR1 = FGFR1 (UniProt P11362); experiment: as above
# FGFR1, sequence (P11362 whole entry, looked up): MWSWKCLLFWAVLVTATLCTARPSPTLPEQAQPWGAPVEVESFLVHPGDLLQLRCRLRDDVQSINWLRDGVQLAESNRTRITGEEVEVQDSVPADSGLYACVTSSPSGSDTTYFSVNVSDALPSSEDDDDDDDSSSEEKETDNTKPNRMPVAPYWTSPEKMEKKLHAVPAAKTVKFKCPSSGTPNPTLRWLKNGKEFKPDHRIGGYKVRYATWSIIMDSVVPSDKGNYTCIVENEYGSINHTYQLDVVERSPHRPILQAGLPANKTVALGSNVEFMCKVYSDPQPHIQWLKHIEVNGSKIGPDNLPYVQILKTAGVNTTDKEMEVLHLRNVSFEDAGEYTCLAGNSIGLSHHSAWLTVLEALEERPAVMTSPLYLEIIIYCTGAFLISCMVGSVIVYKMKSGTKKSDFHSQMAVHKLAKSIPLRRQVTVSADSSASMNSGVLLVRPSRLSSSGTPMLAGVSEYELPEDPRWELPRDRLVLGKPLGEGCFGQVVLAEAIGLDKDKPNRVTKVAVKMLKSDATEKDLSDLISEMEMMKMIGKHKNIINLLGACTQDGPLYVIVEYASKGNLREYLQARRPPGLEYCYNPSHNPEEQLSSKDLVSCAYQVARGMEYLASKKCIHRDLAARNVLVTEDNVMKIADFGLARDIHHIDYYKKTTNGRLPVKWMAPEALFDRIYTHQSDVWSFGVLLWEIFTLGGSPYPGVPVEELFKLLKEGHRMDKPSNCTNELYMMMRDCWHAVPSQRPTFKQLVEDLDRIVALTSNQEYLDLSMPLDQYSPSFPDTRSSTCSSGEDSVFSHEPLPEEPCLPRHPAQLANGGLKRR
# Fyn = Fyn (UniProt P06241); experiment: as above
# Fyn, sequence (P06241 whole entry, looked up): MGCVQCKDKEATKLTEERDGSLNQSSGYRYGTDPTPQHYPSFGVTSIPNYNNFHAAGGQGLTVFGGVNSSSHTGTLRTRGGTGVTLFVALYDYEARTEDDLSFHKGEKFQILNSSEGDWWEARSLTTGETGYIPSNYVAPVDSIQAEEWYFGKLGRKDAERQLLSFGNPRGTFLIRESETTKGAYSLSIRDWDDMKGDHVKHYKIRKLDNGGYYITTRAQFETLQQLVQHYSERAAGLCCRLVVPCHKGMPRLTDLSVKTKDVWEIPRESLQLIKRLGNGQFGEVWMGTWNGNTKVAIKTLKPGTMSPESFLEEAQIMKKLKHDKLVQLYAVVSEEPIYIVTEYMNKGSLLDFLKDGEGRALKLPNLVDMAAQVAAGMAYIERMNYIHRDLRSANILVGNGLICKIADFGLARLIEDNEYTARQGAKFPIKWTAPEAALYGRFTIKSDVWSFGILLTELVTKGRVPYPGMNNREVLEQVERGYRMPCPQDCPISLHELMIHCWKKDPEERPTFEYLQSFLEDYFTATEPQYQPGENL
# AncSZ = experiment: as above
# MERTK = MERTK (UniProt Q12866); experiment: as above
# Fes = Fes (UniProt P07332); experiment: as above
# Fes, sequence (P07332 whole entry, looked up): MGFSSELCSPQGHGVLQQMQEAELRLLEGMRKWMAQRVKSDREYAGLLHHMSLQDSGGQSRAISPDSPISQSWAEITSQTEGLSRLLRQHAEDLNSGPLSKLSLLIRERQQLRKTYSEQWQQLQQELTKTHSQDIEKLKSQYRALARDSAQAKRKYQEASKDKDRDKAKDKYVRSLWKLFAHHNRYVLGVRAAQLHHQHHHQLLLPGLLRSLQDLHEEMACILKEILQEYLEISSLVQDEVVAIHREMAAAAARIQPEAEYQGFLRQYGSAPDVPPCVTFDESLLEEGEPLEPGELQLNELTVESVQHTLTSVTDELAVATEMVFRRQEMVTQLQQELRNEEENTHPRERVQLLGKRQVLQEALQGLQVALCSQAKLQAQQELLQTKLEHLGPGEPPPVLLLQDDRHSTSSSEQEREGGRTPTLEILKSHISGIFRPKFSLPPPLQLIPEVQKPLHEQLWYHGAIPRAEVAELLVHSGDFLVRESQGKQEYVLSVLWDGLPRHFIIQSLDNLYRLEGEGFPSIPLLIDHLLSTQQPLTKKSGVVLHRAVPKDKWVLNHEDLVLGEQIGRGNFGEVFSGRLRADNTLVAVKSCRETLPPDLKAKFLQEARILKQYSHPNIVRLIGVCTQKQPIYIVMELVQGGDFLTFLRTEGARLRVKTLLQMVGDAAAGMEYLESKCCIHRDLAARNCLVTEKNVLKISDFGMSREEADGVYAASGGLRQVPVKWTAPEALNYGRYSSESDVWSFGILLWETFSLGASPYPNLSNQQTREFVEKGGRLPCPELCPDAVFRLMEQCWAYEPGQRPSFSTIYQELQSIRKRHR
# Jak2 = Jak2 (UniProt O60674); experiment: as above
# Hck = Hck (UniProt P08631); experiment: as above
# c-Src = experiment: as above
# FGFR3 = FGFR3 (UniProt P22607); experiment: as above
# FGFR3, sequence (P22607 whole entry, looked up): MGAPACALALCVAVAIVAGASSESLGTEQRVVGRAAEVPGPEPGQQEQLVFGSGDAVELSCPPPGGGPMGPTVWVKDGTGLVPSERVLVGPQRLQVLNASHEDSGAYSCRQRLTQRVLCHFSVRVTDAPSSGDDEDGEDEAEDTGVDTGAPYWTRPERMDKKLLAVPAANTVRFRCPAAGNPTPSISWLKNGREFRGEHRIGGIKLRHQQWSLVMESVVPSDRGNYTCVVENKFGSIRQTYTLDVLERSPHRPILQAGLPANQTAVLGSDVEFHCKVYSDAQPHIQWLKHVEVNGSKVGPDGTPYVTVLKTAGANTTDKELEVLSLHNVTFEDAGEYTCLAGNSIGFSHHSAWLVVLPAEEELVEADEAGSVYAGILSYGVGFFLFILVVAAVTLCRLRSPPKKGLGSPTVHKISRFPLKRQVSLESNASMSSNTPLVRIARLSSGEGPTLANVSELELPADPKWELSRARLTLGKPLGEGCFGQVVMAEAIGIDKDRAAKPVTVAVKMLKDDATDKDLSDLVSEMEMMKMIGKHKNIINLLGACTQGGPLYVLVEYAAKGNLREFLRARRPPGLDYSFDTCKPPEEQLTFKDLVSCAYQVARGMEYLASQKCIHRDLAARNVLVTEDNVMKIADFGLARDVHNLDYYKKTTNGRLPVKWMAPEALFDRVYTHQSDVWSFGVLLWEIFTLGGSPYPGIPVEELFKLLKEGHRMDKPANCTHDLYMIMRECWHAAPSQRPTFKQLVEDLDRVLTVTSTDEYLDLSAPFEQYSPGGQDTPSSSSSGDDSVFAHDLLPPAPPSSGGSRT
# EPHB2 = EPHB2 (UniProt P29323); experiment: as above
# EPHB2, sequence (P29323 whole entry, looked up, the tested form may be a part): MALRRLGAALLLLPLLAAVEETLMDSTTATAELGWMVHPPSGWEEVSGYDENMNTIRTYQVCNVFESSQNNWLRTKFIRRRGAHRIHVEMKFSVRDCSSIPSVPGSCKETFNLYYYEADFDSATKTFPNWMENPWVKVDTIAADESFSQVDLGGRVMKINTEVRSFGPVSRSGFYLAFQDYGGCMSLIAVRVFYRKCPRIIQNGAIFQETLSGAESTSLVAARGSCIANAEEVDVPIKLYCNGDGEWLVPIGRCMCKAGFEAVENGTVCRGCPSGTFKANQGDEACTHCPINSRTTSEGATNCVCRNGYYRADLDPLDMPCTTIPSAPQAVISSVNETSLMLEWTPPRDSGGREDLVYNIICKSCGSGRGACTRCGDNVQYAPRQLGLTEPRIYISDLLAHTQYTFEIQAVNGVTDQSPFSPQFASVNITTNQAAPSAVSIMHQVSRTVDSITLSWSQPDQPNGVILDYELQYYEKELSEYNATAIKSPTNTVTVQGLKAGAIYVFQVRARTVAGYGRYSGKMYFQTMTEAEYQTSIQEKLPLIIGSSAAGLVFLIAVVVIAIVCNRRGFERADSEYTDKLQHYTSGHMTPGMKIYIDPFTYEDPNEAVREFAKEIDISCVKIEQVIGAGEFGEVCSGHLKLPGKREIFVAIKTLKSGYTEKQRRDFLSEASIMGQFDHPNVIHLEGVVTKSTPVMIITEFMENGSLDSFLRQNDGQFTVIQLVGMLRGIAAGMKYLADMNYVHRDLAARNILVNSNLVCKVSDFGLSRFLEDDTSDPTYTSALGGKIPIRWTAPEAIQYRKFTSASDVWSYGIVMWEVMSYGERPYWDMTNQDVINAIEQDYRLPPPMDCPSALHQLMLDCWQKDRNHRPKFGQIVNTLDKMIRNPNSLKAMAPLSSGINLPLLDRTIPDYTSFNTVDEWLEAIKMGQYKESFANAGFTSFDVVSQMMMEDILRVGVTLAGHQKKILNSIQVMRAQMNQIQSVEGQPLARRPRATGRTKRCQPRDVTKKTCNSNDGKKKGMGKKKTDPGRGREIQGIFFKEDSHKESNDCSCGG
# 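Wherever SH2 binding enrichment of the phosphorylated peptide, bacterial display is given: peptide library displayed on the E. coli surface as eCPX fusions, selected cells deep-sequenced, score is each peptide's frequency after selection divided by its frequency in the input.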
# 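Wherever phosphorylation enrichment, bacterial display is given: 11-residue human phosphosite peptides and single-mutation variants displayed on the E. coli surface, counted by deep sequencing, each peptide's frequency after selection divided by its frequency in the unselected input library; frequency after pTyr selection over input frequency; kinase dosed for 20-30% of maximal phosphorylation in three min.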
# EPHB1, sequence (P54762 whole entry, looked up): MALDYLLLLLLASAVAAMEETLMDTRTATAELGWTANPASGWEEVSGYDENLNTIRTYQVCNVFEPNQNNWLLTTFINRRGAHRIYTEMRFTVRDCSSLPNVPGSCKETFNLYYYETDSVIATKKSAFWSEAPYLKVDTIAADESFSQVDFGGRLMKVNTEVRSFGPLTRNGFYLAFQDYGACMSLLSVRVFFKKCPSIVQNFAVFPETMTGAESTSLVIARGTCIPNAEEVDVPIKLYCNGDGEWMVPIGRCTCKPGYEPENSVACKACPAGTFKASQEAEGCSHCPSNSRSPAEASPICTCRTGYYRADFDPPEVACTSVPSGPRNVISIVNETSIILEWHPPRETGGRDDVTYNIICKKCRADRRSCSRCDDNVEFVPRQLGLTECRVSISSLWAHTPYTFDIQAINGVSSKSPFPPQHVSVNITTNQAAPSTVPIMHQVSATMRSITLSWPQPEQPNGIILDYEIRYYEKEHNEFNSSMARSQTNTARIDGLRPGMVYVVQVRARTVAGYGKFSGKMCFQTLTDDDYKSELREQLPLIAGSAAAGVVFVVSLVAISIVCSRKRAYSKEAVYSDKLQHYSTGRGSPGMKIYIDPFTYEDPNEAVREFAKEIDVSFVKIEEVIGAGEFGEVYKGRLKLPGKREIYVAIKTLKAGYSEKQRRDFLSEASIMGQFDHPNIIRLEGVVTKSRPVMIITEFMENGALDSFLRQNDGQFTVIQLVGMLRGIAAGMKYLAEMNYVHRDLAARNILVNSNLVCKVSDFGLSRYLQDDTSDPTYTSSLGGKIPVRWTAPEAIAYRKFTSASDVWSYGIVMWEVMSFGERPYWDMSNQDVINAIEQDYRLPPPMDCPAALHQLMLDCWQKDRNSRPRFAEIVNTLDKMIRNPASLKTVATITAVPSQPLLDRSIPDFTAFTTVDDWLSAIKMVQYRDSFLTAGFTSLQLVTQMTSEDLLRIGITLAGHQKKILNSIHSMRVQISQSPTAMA
Sequence,SH2 binding enrichment (SHP2-C SH2),SH2 binding enrichment (c-Src SH2),SH2 binding enrichment (Grb2 SH2),phosphorylation enrichment (EPHB1),phosphorylation enrichment (c-Abl (mouse)),phosphorylation enrichment (Fer (mouse)),phosphorylation enrichment (FGFR1),phosphorylation enrichment (Fyn),phosphorylation enrichment (AncSZ),phosphorylation enrichment (MERTK),phosphorylation enrichment (Fes),phosphorylation enrichment (Jak2),phosphorylation enrichment (Hck),phosphorylation enrichment (c-Src),phosphorylation enrichment (FGFR3),phosphorylation enrichment (EPHB2)
ETLLYYGYRRS [POR_Y564_C566Y],1,0.474,0.756,1.21,9.52,0.766,1.3,9.27,1.21,6.93,0.806,5.24,14.6,10.7,1.18,1.06
FSLPAYMDRRD [COX4I1_Y38],0.72,0.626,0.772,0.459,0.87,0.432,0.464,0.355,0.873,0.425,0.815,0.696,0.492,0.424,0.622,0.471
SVVVPDEPPEV [TP53_Y220_Y220D],0.794,0.576,0.755,0.706,0.782,0.647,0.724,0.582,1.33,0.586,1.39,1.19,0.567,0.522,0.687,0.665
FLGKGYSDGGC [MC4R_Y35_S30F],0.832,0.509,1.1,0.503,0.818,0.542,0.672,0.548,0.876,0.552,1.14,0.95,0.579,0.592,0.623,0.567
LVRPPYSFSAL [FOXI1_Y126_YF],0.562,0.478,0.809,0.385,0.465,0.479,0.395,0.419,0.602,0.363,0.618,0.553,0.423,0.409,0.434,0.46
LSDGPYSNPFE [EPOR_Y485_YF],0.486,1.91,0.82,0.547,0.701,0.822,0.491,1.77,1.47,0.534,1.16,0.862,0.843,0.856,0.614,0.628
TISPFYRQSLF [CRYAA_Y48_YF],0.706,0.612,0.85,0.435,0.49,0.369,0.448,0.437,0.648,0.467,0.76,0.693,0.396,0.395,0.489,0.528
SLAARYFNWVC [FLT4_Y1230_S1235C_YF],1.59,1.43,2.08,0.61,0.899,0.546,0.661,0.38,1.21,0.514,1.2,0.997,0.435,0.397,0.822,0.656
IRTIDYRFTVC [IDS_Y497_W502C_YF],0.739,0.407,0.85,0.787,0.952,0.518,0.561,0.444,1.22,0.396,1.38,1.14,0.581,0.469,0.832,0.579
FSMGCYEFSLG [HMGCL_Y198_I200F_YF],0.976,0.498,0.923,1.12,1.47,3,0.733,0.881,2.26,0.964,1.53,1.2,0.706,1.25,1.14,0.984

# The next lines start with results.
SH2 binding enrichment (SHP2-C SH2),SH2 binding enrichment (c-Src SH2),SH2 binding enrichment (Grb2 SH2),Sequence,phosphorylation enrichment (EPHB1),phosphorylation enrichment (c-Abl (mouse)),phosphorylation enrichment (Fer (mouse)),phosphorylation enrichment (FGFR1),phosphorylation enrichment (Fyn),phosphorylation enrichment (AncSZ),phosphorylation enrichment (MERTK),phosphorylation enrichment (Fes),phosphorylation enrichment (Jak2),phosphorylation enrichment (Hck),phosphorylation enrichment (c-Src),phosphorylation enrichment (FGFR3),phosphorylation enrichment (EPHB2)
0.718,0.572,1.01,ATFRGYDSDNP [MMUT_Y146_H143Y_YF],0.424,0.666,0.553,0.571,0.51,0.904,0.373,0.896,0.811,0.528,0.425,0.531,0.513
0.635,0.451,0.734,GLNKDYRMVVN [HINT1_Y94_G93D],0.426,0.447,0.448,0.51,0.455,0.652,0.424,0.605,0.566,0.437,0.415,0.504,0.44
0.914,0.567,0.757,TVDASYCGGRG [ANTXR2_Y380_Y381C],0.393,0.465,0.402,0.496,0.383,0.558,0.452,0.695,0.558,0.436,0.351,0.437,0.516
1.35,1.13,1.27,QLYGAYLRIHA [BSCL2_Y213],1,0.915,0.536,1.02,7.21,1.95,0.905,1.68,1.2,4.32,3.58,1.12,1.3
0.354,0.38,0.636,TWSRSYRSDRL [CRYBB1_Y131_S129R],0.445,0.586,0.452,0.607,0.453,0.676,0.518,0.715,0.778,0.614,0.545,0.494,0.51
1.13,0.816,0.87,VFSTDCFRVGG [NTRK2_Y706_Y706C_YF],0.588,1.04,0.761,0.565,0.945,1.02,0.549,0.971,1.07,0.685,0.44,0.602,0.462

# Source: the supplement of paper PMC10065799, “High-throughput profiling of sequence recognition by tyrosine kinases and SH2 domains using bacterial peptide display” (eLife, 2023)
